Data: patent publication US20260126450A1

Columns and labels:
[1] = target: surface HIV-1 Env BG505 SOSIP (HIV-1 BG505.DS-SOSIP trimeric antigen), membrane-bound on HEK293 cells (HIV-1); test: droplet co-expression, FACS sort for anti-Kappa-FITC, NGS of VH genes
[2] = target: surface HIV-1 Env BG505 SOSIP (HIV-1 BG505.DS-SOSIP trimeric antigen), membrane-bound on HEK293 cells (HIV-1); test: FACS, anti-Kappa-FITC stain of HEK293 cells co-expressing surface Env and secreted IgG1 after 24 h in droplets

VRC01 (antibody)
Enrichment Ratio (FITC+ prevalence / FITC- prevalence) [1]: 2 | fold anti-Kappa binding against cells expressing 1-20 [2]: > 5 fold
